In patent publication US6624139B1, “Hypersensitive response elicitor-induced stress resistance” (Eden Bioscience Corporation, priority 1998, dated 2003):
Residue numbers refer to the chain shown, from its start. “And” between values parts separate entries of the source, which are not always exact repeats. Identical values can stand only once.

Columns and labels:
[1] = system: pepper; assay: Pepper tolerance to SENCOR herbicide damage; format: in vivo
Source text: Pepper seedlings were drenched with hypersensitive response elicitor at 20 ppm seven days before transplanting, sprayed seven days after the transplanting, and then, sprayed every fourteen days. Standard chemicals, Brave, Maneb, Kocide, and Admire, were used for the rest of the treatment. […] The pepper field was applied with the herbicide SENCOR which is not labeled for pepper. This herbicide is known to cause severe foliar damage to pepper in chemically-treated plants but not with hypersensitive response elicitor-treated plants.
The difference between the adverse effect of the herbicide on the hypersensitive response elicitor and non-hypersensitive response elicitor treated plants is dramatic. […] In contrast, 53 out of the 60 chemically-treated pepper plants had severe damage, 40-57% of the leaves were damaged, and 20 plants were dead. The ability of hypersensitive response elicitors to help crops withstand the phytotoxic effects of a herbicide is very important benefit to in agricultural industry.

[2] = system: cotton; assay: Insecticide stress tolerance of cotton (defoliation, formed cotton balls); format: in vivo
Source text: (§1) Aphids (Aphids gossypii) infect cotton during the entire growth season. The damage of aphid infection ranges from honeydew deposit that contaminates the lint and reduces crop value to defoliation that reduces or destroys crops. To protect plants from aphid infection, cotton is usually sprayed with insecticides, for example Asana XL when the infection pressure is not very high, and Admire when the infestation pressure is high. The effect of a hypersensitive response elicitor on aphids in cotton was studied by a trial involving a randomized complete block design. This involved treatment with Erwinia amylovora hypersensitive response elicitor (i.e. HP-100™) at 20, 60, and 80 ppm and a chemical insecticide, Asana XL, at 8 oz./ac. Each treatment involved foliar application beginning at cotyledon to three true leaves and thereafter at 14 day intervals using a backpack sprayer. Aphid counts and overall growth of the cotton were made immediately prior to spray application at 14, 28, 35, and 42 days after the first treatment (“DAT 1”). Twenty-five randomly selected leaves per plot were collected at the first three sampling dates and the leaves per plot at the final sampling date.
2. Hypersensitive response elicitor-treated cotton was more resistant to the damage caused by Pravado (Admire) and Asana. […]

[3] = system: Aphids (Aphids gossypii); assay: Aphid count per leaf on cotton, field trial; format: in vivo
Source text: as §1

[4] = system: cucumber; assay: Cucumber field trial under drought (survival, flowering, yield); format: in vivo; parameters: Yield/Replicate: unit not given beside the values; conditions: for Yield summed over the three replicates: control 39.3; for Yield/Replicate / kg/plant: replicates I-III; for % of the Yield Increase: versus control; for kg/plant: cucumber fruit yield
Method: A cucumber field trial was set up to test the effect of Erwinia amylovora hypersensitive response elicitor on disease control, tolerance to drought stress, and yield. Three different rates were tested, there at 15, 30, and 60 μg/ml. In addition to hypersensitive response elicitor treatment, there was an untreated control. Each treatment contained three replicate plots. When the first true leaf emerges, hypersensitive response elicitor was sprayed with a back bag sprayer. The second spray was applied ten days after the first spray. The third application was right after the recovery of cucumber seedlings after the transplanting to the field. Individual treatment was randomly assigned in the field.
When the first true leaf emerged (Day 0), a first application was sprayed. Usually cucumber seedlings are transplanted when seedlings show two true leaves. It has been known that the recovery rate after the transplanting is closely related to the size of the seedlings. Because of the drought, the seedlings were maintained in the nursery for an extra ten days and the second spray was applied on Day 10. Two days after the second spray, the plants were transplanted into fields and covered with plastic sheets. The plants had 4-5 true leaves.

[5] = cited from earlier work

B1: HP-1000: Erwinia amylovora hypersensitive response elicitor protein applied to plants by foliar spray or drench (protein, UniProt Q01099 1-403, looked up)
Harpin HrpN: MSLNTSGLGASTMQISIGGAGGNNGLLGTSRQNAGLGGNSALGLGGGNQNDTVNQLAGLLTGMMMMMSMMGGGGLMGGGLGGGLGNGLGGSGGLGEGLSNALNDMLGGSLNTLGSKGGNNTTSTTNSPLDQALGINSTSQNDDSTSGTDSTSDSSDPMQQLLKMFSEIMQSLFGDGQDGTQGSSSGGKQPTEGEQNAYKKGVTDALSGLMGNGLSQLLGNGGLGGGQGGNAGTGLDGSSLGGKGLQNLSGPVDYQQLGNAVGTGIGMKAGIQALNDIGTHSDSSTRSFVNKGDRAMAKEIGQFMDQYPEVFGKPQYQKGPGQEVKTDDKSWAKALSKPDDDGMTPASMEQFNKAKGMIKSAMAGDTGNGNLQARGAGGSSLGIDAMMAGDAINNMALGKLGAA
- Number of plants with Damage Rating 1 ([1]; 1 = No damage, 60 plants, SENCOR herbicide, elicitor 20 ppm): 1
- Number of plants with Damage Rating 2 ([1]; 2 = 0-20% leaves damaged, 60 plants, SENCOR herbicide): 38
- Number of plants with Damage Rating 3 ([1]; 3 = 20-40% leaves damaged, 60 plants, SENCOR herbicide): 17
- Number of plants with Damage Rating 4 ([1]; 4 = 40-50% leaves damaged, 60 plants, SENCOR herbicide): 3
- Number of plants with Damage Rating 6 ([1]; 6 = More than 75% leaves damaged or entire plant dead, 60 plants, SENCOR herbicide): 0
- Plants with only minor damage by the herbicide (damaged leaves less than 20%) ([1]; of 60 plants, SENCOR): Thirty-nine of the 60
- Number of plants with Damage Rating 5 ([1]; rating 5 not defined in footnote, 60 plants, SENCOR herbicide): 1
- Damage Index % ([1]; sum of rating times number of plants, divided by total plants times 6): 41%
- Defoliation of cotton after second chemical spraying ([2]; after Pravado (Admire) applied to all plots, elicitor especially at 80 ppm): no defoliation
- No. balls/10 plants/replicate ([2]; formed cotton balls on ten plants in each of four replicates, after insecticide stress, elicitor at 80 ppm): 35
- Number of aphids per leaf ([3]; 20 μg/ml a.i., 1 spray, 14 DAT 1): 0.2 a per leaf
- Number of aphids per leaf ([3]; 20 μg/ml a.i., 2 sprays, 28 DAT 1): 7.8 b per leaf
- Number of aphids per leaf ([3]; 20 μg/ml a.i., 3 sprays, 35 DAT 1): 22.9 b per leaf
- Number of aphids per leaf ([3]; 20 μg/ml a.i., 4 sprays, 42 DAT 1): 322.1 a per leaf
- Number of aphids per leaf ([3]; 60 μg/ml a.i., 1 spray, 14 DAT 1): 0.1 a per leaf
- Number of aphids per leaf ([3]; 60 μg/ml a.i., 2 sprays, 28 DAT 1): 4.9 b per leaf
- Number of aphids per leaf ([3]; 60 μg/ml a.i., 3 sprays, 35 DAT 1): 34.6 b per leaf
- Number of aphids per leaf ([3]; 60 μg/ml a.i., 4 sprays, 42 DAT 1): 168.3 a per leaf
- Number of aphids per leaf ([3]; 80 μg/ml a.i., 1 spray, 14 DAT 1): 0.0 a per leaf
- Number of aphids per leaf ([3]; 80 μg/ml a.i., 2 sprays, 28 DAT 1): 2.7 b per leaf
- Number of aphids per leaf ([3]; 80 μg/ml a.i., 3 sprays, 35 DAT 1): 25.8 b per leaf
- Number of aphids per leaf ([3]; 80 μg/ml a.i., 4 sprays, 42 DAT 1): 510.2 a per leaf
- Yield summed over the three replicates ([4]; 15 μg/ml): 103.8
- Yield/Replicate ([4]; 15 μg/ml, listed as HP 15): 37.5 and 30.0 and 36.3
- % of the Yield Increase ([4]; 15 μg/ml): 241%
- Yield summed over the three replicates ([4]; 30 μg/ml): 133.2
- Yield/Replicate ([4]; 30 μg/ml, listed as HP 30): 46.2 and 42.9 and 44.1
- % of the Yield Increase ([4]; 30 μg/ml): 339%
- Final yield relative to control plants ([4]; 30 ppm): three times greater yield
- kg/plant ([4]; 15 μg/ml, listed as HP 15): 1.25 kg/plant and 1.00 kg/plant and 1.21 kg/plant
- kg/plant ([4]; 30 μg/ml, listed as HP 30): 1.54 kg/plant and 1.43 kg/plant and 1.47 kg/plant
- Start of flowering earlier than untreated control ([4]; drought): 14 days
- Cucumber seedlings survived after transplanting ([4]; drought, untreated 57%): More than 80%
- Cucumber fruits per plant in the first harvest ([4]; drought, virtually no fruit from untreated control): more than 0.4 kilograms

B2: hypersensitive response elicitor polypeptide or protein derived from Erwinia amylovora: hypersensitive response elicitor protein from Erwinia amylovora, amino acid sequence SEQ. ID. No. 3 (protein, listed as Erwinia amylovora)
chain: B1 Harpin HrpN with S281R, D282H, S360R, A361P
- Time heat stable at 100° C. [5]: at least 10 minutes
